Source: paper PMC1298937, “A Novel Endogenous Inhibitor of the Secreted Streptococcal NAD-Glycohydrolase” (PLoS Pathogens, 2005)

Key:
[1] = target: T1, SPN secreted by S. pyogenes JRS4 (culture supernatant) (Streptococcus pyogenes strain JRS4 …); test: enzyme inhibition kinetics (competitive model); apparent constant; purified IFS (up to 2.3 nM) with SPN from JRS4 culture supernatant (0.125 U/ml) and varying beta-NAD+ (up to 1.2 mM) in PBS at 37 C; fluorescence of residual beta-NAD+; simultaneous fit; conditions: one partner purified
T1 chain: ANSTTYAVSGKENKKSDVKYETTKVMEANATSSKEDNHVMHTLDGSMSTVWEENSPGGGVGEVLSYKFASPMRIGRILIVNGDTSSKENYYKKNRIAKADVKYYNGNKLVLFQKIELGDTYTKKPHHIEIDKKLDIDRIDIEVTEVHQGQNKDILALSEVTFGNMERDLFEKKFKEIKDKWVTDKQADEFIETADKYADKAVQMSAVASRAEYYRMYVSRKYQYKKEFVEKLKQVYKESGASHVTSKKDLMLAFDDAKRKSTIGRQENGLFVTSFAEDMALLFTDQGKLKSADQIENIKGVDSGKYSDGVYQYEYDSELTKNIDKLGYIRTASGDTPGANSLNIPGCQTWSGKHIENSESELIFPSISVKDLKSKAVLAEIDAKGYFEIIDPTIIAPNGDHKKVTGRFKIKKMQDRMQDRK

[2] = target: 6X-His-tagged SPN (SPN-H) expressed from pMAM3.18 (Streptococcus pyogenes strain JRS4); test: SEC + other: densitometry of SDS-PAGE; SPN-IFS complex assembled in vivo and purified from the cytoplasm of E. coli TOP10(pMAM3.18); Superdex 75 HR 10/30, 20 mM Tris pH 8.5, 100 mM NaCl; peak fractions on Coomassie-stained SDS-PAGE compared with known concentrations of purified SPN and IFS

B1: Immunity factor for SPN (IFS) with C-terminal c-myc and 6X-His tags (IFS-H), expressed from pMAM3.19 (natural protein)
chain: MYKVPKGLEHYQKMFQKEVTVNDLKKYLIGSDKEYRITRRDSYMGDISDPEVILEYGVYPAFIKGYTQLKANIEEALLEMSNSGQALDIYQAVQTLNAENMLLNYYESLPFYLNRQSILANITKALKDAHIREAMAHYKLGEFAHYQDTMLDMVERTIETF
notes: source: E. coli TOP10(pMAM3.19), arabinose-induced: cytoplasmic extract; purified (TALON, Resource Q); not shown: c-myc, C-terminal, kept; 6X-His, C-terminal, kept
**Q.** With B1 as the binder, how does the Ki [1] read?
**A.** 2 nM

**Q.** What about the stoichiometry N [2] of the same binder?
**A.** 1
